Source: patent publication US20180177842A1 (CANIMGUIDE THERAPEUTICS, published 2018)

T1: P3028 (VFDEFKPLVEEPQNLIK, SEQ ID NO: 185), His-tagged (human)
T1 construct: Synthetic fragment of human serum albumin (positions 397-413); used in solution as His-tagged peptide PGE73; also called PGE73; not shown: His-tag
T1 peptide: VFDEFKPLVEEPQNLIK


Target: T1, P3028 (VFDEFKPLVEEPQNLIK, SEQ ID NO: …)
Assay: PEPSCAN ELISA; peptide on chip, His-P3028 added;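 further: peroxidase color development with ABTS and H2O2 substrate, OD405 imaged by CCD camera with image processing and taken as raw values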
KKLDTFFVKLFLFTER [KKLDTFFVKLFLFTER (SEQ ID NO: 522)] was tested, and the “RAMPO Score” value was 250 rampo units.
For KKLDTFFVKLRLFTER [KKLDTFFVKLRLFTER (SEQ ID NO: 464)], the “RAMPO Score” value was 333 rampo units.
KKLDTFFVKLKLFTER [KKLDTFFVKLKLFTER (SEQ ID NO: 473)] was tested, and the “RAMPO Score” value was 323 rampo units.
In the case of KKLDTFFVKLSLFMER [KKLDTFFVKLSLFMER (SEQ ID NO: 381)], the “RAMPO Score” value is reported as 501 rampo units.
KKLDTFFVKLSLFTEN [KKLDTFFVKLSLFTEN (SEQ ID NO: 390)] was tested, and the “RAMPO Score” value was 311 rampo units.
For KKLDTFFVKLSLFRER [KKLDTFFVKLSLFRER (SEQ ID NO: 33)], the “RAMPO Score” value was 264 rampo units.
KKLDTFFVKLGLFTER [KKLDTFFVKLGLFTER (SEQ ID NO: 99)] was tested, and the “RAMPO Score” value was 288 rampo units.
With KKLDTFFVKLSFFTER [KKLDTFFVKLSFFTER (SEQ ID NO: 422)] the “RAMPO Score” value was 389 rampo units.
For KKLDTFFVKLSLFFER [KKLDTFFVKLSLFFER (SEQ ID NO: 376)], the “RAMPO Score” value was 348 rampo units.
For KKLDTFFVKLSLFTQR [KKLDTFFVKLSLFTQR (SEQ ID NO: 450)], the “RAMPO Score” value was 344 rampo units.
With KKLDTFFVKLSLATER [KKLDTFFVKLSLATER (SEQ ID NO: 361)] the “RAMPO Score” value was 525 rampo units.
KKLDTFFVKLSLFGER [KKLDTFFVKLSLFGER (SEQ ID NO: 377)] was tested, and the “RAMPO Score” value was 343 rampo units.
In the case of KKLDTFFVKLSLFHER [KKLDTFFVKLSLFHER (SEQ ID NO: 378)], the “RAMPO Score” value is reported as 463 rampo units.
For KKLDTFFVKLSLFIER [KKLDTFFVKLSLFIER (SEQ ID NO: 379)], the “RAMPO Score” value was 375 rampo units.
For KKLDTFFVKLNLFTER [KKLDTFFVKLNLFTER (SEQ ID NO: 347)], the “RAMPO Score” value was 451 rampo units.
In the case of KKLDTFFVKLSLFQER [KKLDTFFVKLSLFQER (SEQ ID NO: 493)], the “RAMPO Score” value is reported as 301 rampo units.
In the case of KKLDTFFVKLSLFTLR [KKLDTFFVKLSLFTLR (SEQ ID NO: 525)], the “RAMPO Score” value is reported as 246 rampo units.
KKLDTFFVKLSLFTPR [KKLDTFFVKLSLFTPR (SEQ ID NO: 439)] was tested, and the “RAMPO Score” value was 351 rampo units.
With KKLDTFFVKLMLFTER [KKLDTFFVKLMLFTER (SEQ ID NO: 346)] the “RAMPO Score” value was 744 rampo units.
In the case of KKLDTFFVKLSLFTHR [KKLDTFFVKLSLFTHR (SEQ ID NO: 478)], the “RAMPO Score” value is reported as 318 rampo units.
KKLDTFFVKLSLFCER [KKLDTFFVKLSLFCER (SEQ ID NO: 520)] was tested, and the “RAMPO Score” value was 254 rampo units.
KKLDTFFVKLSAFTER [KKLDTFFVKLSAFTER (SEQ ID NO: 350)] was tested, and the “RAMPO Score” value was 462 rampo units.
With KKLDTFFVKLSLFTRR [KKLDTFFVKLSLFTRR (SEQ ID NO: 531)] the “RAMPO Score” value was 237 rampo units.
With KKLDTFFVKLSLFSER [KKLDTFFVKLSLFSER (SEQ ID NO: 384)] the “RAMPO Score” value was 369 rampo units.
In the case of KKLDTFFVKLSLFTET [KKLDTFFVKLSLFTET (SEQ ID NO: 392)], the “RAMPO Score” value is reported as 292 rampo units.
For KKLDTFFVKLSLFWER [KKLDTFFVKLSLFWER (SEQ ID NO: 386)], the “RAMPO Score” value was 374 rampo units.
With KKLDTFFVKLQLFTER [KKLDTFFVKLQLFTER (SEQ ID NO: 348)] the “RAMPO Score” value was 768 rampo units.
In the case of KKLDTFFVKLSLFTYR [KKLDTFFVKLSLFTYR (SEQ ID NO: 459)], the “RAMPO Score” value is reported as 340 rampo units.
KKLDTFFVKLSGFTER [KKLDTFFVKLSGFTER (SEQ ID NO: 431)] was tested, and the “RAMPO Score” value was 370 rampo units.
With KKLDTFFVKLSLFTEM [KKLDTFFVKLSLFTEM (SEQ ID NO: 529)] the “RAMPO Score” value was 238 rampo units.
With KKLDTFFVKLSLFNER [KKLDTFFVKLSLFNER (SEQ ID NO: 382)] the “RAMPO Score” value was 599 rampo units.
KKLDTFFVKLSLFTMR [KKLDTFFVKLSLFTMR (SEQ ID NO: 524)] was tested, and the “RAMPO Score” value was 247 rampo units.
KKLDTFFVKLSCFTER [KKLDTFFVKLSCFTER (SEQ ID NO: 455)] was tested, and the “RAMPO Score” value was 342 rampo units.
With KKLDTFFVKLPLFTER [KKLDTFFVKLPLFTER (SEQ ID NO: 470)] the “RAMPO Score” value was 328 rampo units.
With KKLDTFFVKLSLFTEV [KKLDTFFVKLSLFTEV (SEQ ID NO: 521)] the “RAMPO Score” value was 254 rampo units.
For KKLDTFFVKLILFTER [KKLDTFFVKLILFTER (SEQ ID NO: 505)], the “RAMPO Score” value was 289 rampo units.
With KKLDTFFVKLSHFTER [KKLDTFFVKLSHFTER (SEQ ID NO: 351)] the “RAMPO Score” value was 460 rampo units.
With KKLDTFFVKLSKFTER [KKLDTFFVKLSKFTER (SEQ ID NO: 438)] the “RAMPO Score” value was 355 rampo units.
In the case of KKLDTFFVKLSLFLER [KKLDTFFVKLSLFLER (SEQ ID NO: 380)], the “RAMPO Score” value is reported as 360 rampo units.
KKLDTFFVKLSLFAER [KKLDTFFVKLSLFAER (SEQ ID NO: 489)] was tested, and the “RAMPO Score” value was 305 rampo units.
In the case of KKLDTFFVKLSLFPER [KKLDTFFVKLSLFPER (SEQ ID NO: 383)], the “RAMPO Score” value is reported as 551 rampo units.
In the case of KKLDTFFVKLSLFTDR [KKLDTFFVKLSLFTDR (SEQ ID NO: 387)], the “RAMPO Score” value is reported as 404 rampo units.
With KKLDTFFVKLSLFVER [KKLDTFFVKLSLFVER (SEQ ID NO: 385)] the “RAMPO Score” value was 380 rampo units.
With KKLDTFFVKLSLFTEK [KKLDTFFVKLSLFTEK (SEQ ID NO: 389)] the “RAMPO Score” value was 291 rampo units.
With KKLDTFFVKLSLFTEH [KKLDTFFVKLSLFTEH (SEQ ID NO: 528)] the “RAMPO Score” value was 239 rampo units.
With KKLDTFFVKLSLFTEF [KKLDTFFVKLSLFTEF (SEQ ID NO: 388)] the “RAMPO Score” value was 297 rampo units.
With KKLDTFFVKLSLFTEY [KKLDTFFVKLSLFTEY (SEQ ID NO: 393)] the “RAMPO Score” value was 311 rampo units.
KKLDTFFVKLSLFKER [KKLDTFFVKLSLFKER (SEQ ID NO: 517)] was tested, and the “RAMPO Score” value was 259 rampo units.
With KKLDTFFVKLHLFTER [KKLDTFFVKLHLFTER (SEQ ID NO: 345)] the “RAMPO Score” value was 535 rampo units.
With KKLDTFFVKLSLFTKR [KKLDTFFVKLSLFTKR (SEQ ID NO: 471)] the “RAMPO Score” value was 324 rampo units.
In the case of KKLDTFFVKLSIFTER [KKLDTFFVKLSIFTER (SEQ ID NO: 352)], the “RAMPO Score” value is reported as 456 rampo units.
In the case of KKLDTFFVKLSLCTER [KKLDTFFVKLSLCTER (SEQ ID NO: 362)], the “RAMPO Score” value is reported as 400 rampo units.
